Substitutions are numbered along the chain they refer to. In names and notes the source's numbering stands.
B1: AVR4 (carries C122S), produced in insect cells (natural protein, chicken, UniProt P56734 25-150, looked up)
chain: ARKCSLTGKWTNNLGSIMTIRAVNSRGEFTGTYLTAVADNPGNITLSPLLGIQHKRASQPTFGFTVHWNFSESTTVFTGQCFIDRNGKEVLKTMWLLRSSVNDISYDWKATRVGYNNFTRLSTVEE
notes: avidin related protein 4 (identical to AVR5), chicken, with C122S; also called AVR5 (AVR4 is identical to AVR5)
B2: AVR4(K109I) (also carries C122S), produced in insect cells (natural protein, chicken, UniProt P56734 25-150, looked up)
chain: B1 chain with K109I
notes: avidin related protein 4 (identical to AVR5), chicken, with K109I and C122S; An E. coli form, AVR4(K109I)-b, was also made
B3: Avidin related protein 2 (AVR2), produced in insect cells (natural protein, chicken, UniProt P56732 25-150, looked up)
chain: ARKCSLTGEWDNDLGSIMTIGAVNDNGEFDGTYITAVADNPGNITLSPLLGIQHKRASQPTFGFTVHWNFSESTSVFVGQCFVDRSGKEVLKTKWLQRLAVDDISDDWIATRVGNNDFTRQHTVEE
modifications: glycosylated (two potential glycosylation sites; both utilized to some extent)
notes: avidin related protein 2 (AVR2), chicken; The crystal structure PDB 1WBI is of the E. coli form AVR2-b
B4: AVR2(I109K) (natural protein, chicken, UniProt P56732 25-150, looked up)
chain: B3 chain with I109K
notes: avidin related protein 2 (AVR2), chicken, with I109K
B5: AVR6(C58S), produced in E. coli (natural protein, chicken)
chain: QTVARKCSLTGEWDNNLGSIMTIGAVNDNGEFNGTYITAVADNPGNIKLSPLLGIQHKRASQPTFGFTVHWNFSESTSVFVGQCFVDRSGKEVLKTKWLQRLAVDDISDDWKATRVGYNNFTRQRTVEE
notes: checked by ESI-MS on AVR2-b only; avidin related protein 6 (AVR6), chicken, with C58S; also called AVR6-b
B6: AVR2-b (AVR2 produced in E. coli) (natural protein, chicken)
chain: B5 chain with N16D, N33D, K48T, K112I, Y118N, N120D, R125H
notes: three additional residues left at the N-terminus after cleavage of the bacterial OmpA signal peptide; avidin related protein 2 (AVR2), chicken; expected Mr of the product 14307.8 Da; Not glycosylated (bacterial expression); Crystallised in complex with D-biotin

Target: the molecule itself
Test: SEC; FPLC gel filtration, Superdex HR 10/30 column, 50 mM NaCO3 (pH 11.0), 150 mM NaCl; calibrated with IgG, BSA and ovalbumin; oligomeric state (tetramer)

Row | Protein | stoichiometry N
1 | B1 | 4
2 | B2 | 4
3 | B3 | 4
4 | B4 | 4
5 | B5 | 4
6 | B6 | 4
